Among the data in US20250066503A1, “CELL INJURY INDUCING THERAPEUTIC DRUG FOR USE IN CANCER THERAPY” (CHUGAI SEIYAKU KABUSHIKI KAISHA, priority 2016, published 2025) are Kd values, retold here.

One may read the Kd as the concentration at which binding is half-saturated. Lower therefore signals a tighter complex.

The assay concerns the target T1, soluble human CD3 epsilon chain (human, UniProt P07766 23-126).
T1 construct: also called CD3ε
As to the kind of experiment: SPR.

T1 sequence (P07766 23-126 limits assumed): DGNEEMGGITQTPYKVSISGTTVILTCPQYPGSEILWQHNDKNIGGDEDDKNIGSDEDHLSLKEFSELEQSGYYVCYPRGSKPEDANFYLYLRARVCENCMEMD

B1: TR01H038-E22Hh/none-Hi-Kn010G3/L0000-k0 (antibody, V domains shown)
VH: QVQLVESGGGLVQPGRSLRLSCAASGFTFSNAWMHWVRQAPGKGLEWVAQIKDKSNNYATYYAESVKGRFTISRADSKNSIYLQMNSLKTEDTAVYYCRYVHYSASYGVDIWGQGTTVTVSS
VL: DIVMTQSPLSLPVTPGEPASISCRSSQSLVHSNRNTYLHWYQQKPGQAPRLLIYKVSNRFSGVPDRFSGSGSGTDFTLKISRVEAEDVGVYYCGQGTQVPYTFGQGTKLEIKR
notes: one-arm
As to B1, the Kd worked out at 12.4 nM.

B2: TR01H040-E22Hh/none-Hi-Kn010G3/L0208-k0 (antibody, V domains shown)
VH: QVQLVESGGGLVQPGRSLRLSCAASGFTFSNAWMHWVRQAPGKGLEWVAQIKDKSQNYATYYAESVKGRFTISRADSKNSIYLQMNSLKTEDTAVYYCRYVHYSASYGVDAWGQGTTVTVSS
VL: DIVMTQSPLSLPVTPGEPASISCRSSQSPVHSNRNTYLHWYQQKPGQAPRLLIYKVSNRFWGVPDRFSGSGSGTDFTLKISRVEAEDVGVYYCYQGTQVPYTFGQGTKLEIKR
notes: one-arm
B2 gave a Kd of 4.16 nM.

B3: TR01H044-E22Hh/none-Hi-Kn010G3/L0000-k0 (antibody, V domains shown)
VH: QVQLVESGGGLVQPGRSLRLSCSASGFTFSNAWMHWVRQAPGKGLEWVAQIKDKSQNYATYYAESVKGRFTISRADSKNSIYLQMNSLKTEDTAVYYCRYVHYSASYGVDIWGQGTTVTVSS
VL: DIVMTQSPLSLPVTPGEPASISCRSSQSLVHSNRNTYLHWYQQKPGQAPRLLIYKVSNRFSGVPDRFSGSGSGTDFTLKISRVEAEDVGVYYCGQGTQVPYTFGQGTKLEIKR
notes: one-arm
With B3, the Kd stood at 35.2 nM.

B4: TR01H040-E22Hh/none-Hi-Kn010G3/L0203-k0 (antibody, V domains shown)
VH: QVQLVESGGGLVQPGRSLRLSCAASGFTFSNAWMHWVRQAPGKGLEWVAQIKDKSQNYATYYAESVKGRFTISRADSKNSIYLQMNSLKTEDTAVYYCRYVHYSASYGVDAWGQGTTVTVSS
VL: DIVMTQSPLSLPVTPGEPASISCRSSQSPVHSNRNTYIHWYQQKPGQAPRLLIYKVSNRFSGVPDRFSGSGSGTDFTLKISRVEAEDVGVYYCGQGTQVPYTFGQGTKLEIKR
notes: one-arm
Consider B4, for which binding was characterised by a dissociation constant (Kd) of 32.4 nM.

B5: TR01H043-E22Hh/none-Hi-Kn010G3/L0000-k0 (antibody, V domains shown)
VH: QVQLVESGGGLVQPGRSLRLSCSASGFTFSNAWMHWVRQAPGKGLEWVAQIKDKSNNYATYYAESVKGRFTISRADSKNSIYLQMNSLKTEDTAVYYCRYVHYSASYGVDIWGQGTTVTVSS
VL: DIVMTQSPLSLPVTPGEPASISCRSSQSLVHSNRNTYLHWYQQKPGQAPRLLIYKVSNRFSGVPDRFSGSGSGTDFTLKISRVEAEDVGVYYCGQGTQVPYTFGQGTKLEIKR
notes: one-arm
Regarding B5, binding was put at a Kd of 15.2 nM.

B6: TR01H042-E22Hh/none-Hi-Kn010G3/L0000-k0 (antibody, V domains shown)
VH: QVQLVESGGGVVQPGGSLRLSCAASGFTFSNAWMHWVRQAPGKGLEWVAQIKDKSQNYATYYAESVKGRFTISRADSKNSIYLQMNSLKTEDTAVYYCRYVHYSASYGVDAWGQGTTVTVSS
VL: DIVMTQSPLSLPVTPGEPASISCRSSQSLVHSNRNTYLHWYQQKPGQAPRLLIYKVSNRFSGVPDRFSGSGSGTDFTLKISRVEAEDVGVYYCGQGTQVPYTFGQGTKLEIKR
notes: one-arm
Regarding B6, the Kd was determined as 44.8 nM.

B7: TR01H040-E22Hh/none-Hi-Kn010G3/L0222-k0 (antibody, V domains shown)
VH: QVQLVESGGGLVQPGRSLRLSCAASGFTFSNAWMHWVRQAPGKGLEWVAQIKDKSQNYATYYAESVKGRFTISRADSKNSIYLQMNSLKTEDTAVYYCRYVHYSASYGVDAWGQGTTVTVSS
VL: DIVMTQSPLSLPVTPGEPASISCRSSQSPVHSNRNTYIQWYQQKPGQAPRLLIYKVSNRFSGVPDRFSGSGSGTDFTLKISRVEAEDVGVYYCYQGTQVPYTFGQGTKLEIKR
notes: one-arm
B7 came in with a Kd of 46.5 nM.

B8: TR01H040-E22Hh/none-Hi-Kn010G3/L0000-k0 (antibody, V domains shown)
VH: QVQLVESGGGLVQPGRSLRLSCAASGFTFSNAWMHWVRQAPGKGLEWVAQIKDKSQNYATYYAESVKGRFTISRADSKNSIYLQMNSLKTEDTAVYYCRYVHYSASYGVDAWGQGTTVTVSS
VL: DIVMTQSPLSLPVTPGEPASISCRSSQSLVHSNRNTYLHWYQQKPGQAPRLLIYKVSNRFSGVPDRFSGSGSGTDFTLKISRVEAEDVGVYYCGQGTQVPYTFGQGTKLEIKR
notes: one-arm
B8 gave a Kd of 36 nM.

B9: TR01H047-E22Hh/none-Hi-Kn010G3/L0000-k0 (antibody, V domains shown)
VH: QVQLVESGGGLVQPGRSLRLSCAASGFTFSNAWMHWVRQAPGKGLEWVAQIKDKSNNYATYYAESVKGRFTISRDDSKNSIYLQMNSLKTEDTAVYYCRYVHYSASYGVDIWGQGTTVTVSS
VL: DIVMTQSPLSLPVTPGEPASISCRSSQSLVHSNRNTYLHWYQQKPGQAPRLLIYKVSNRFSGVPDRFSGSGSGTDFTLKISRVEAEDVGVYYCGQGTQVPYTFGQGTKLEIKR
notes: one-arm
B9 gave a Kd of 20.4 nM.

B10: TR01H041-E22Hh/none-Hi-Kn010G3/L0000-k0 (antibody, V domains shown)
VH: QVQLVESGGGLVQPGRSLRLSCAASGFTFSNAWMHWVRQAPGKGLEWVAQIKDKSQNYATYYAESVKGRFTISRADSKNSIYLQMNSLKTEDTAVYYCRYVHYSASYGVDYWGQGTTVTVSS
VL: DIVMTQSPLSLPVTPGEPASISCRSSQSLVHSNRNTYLHWYQQKPGQAPRLLIYKVSNRFSGVPDRFSGSGSGTDFTLKISRVEAEDVGVYYCGQGTQVPYTFGQGTKLEIKR
notes: one-arm
For the molecule B10, the Kd worked out at 31.6 nM.

B11: TR01H039-E22Hh/none-Hi-Kn010G3/L0000-k0 (antibody, V domains shown)
VH: QVQLVESGGGLVQPGRSLRLSCAASGFTFSNAWMHWVRQAPGKGLEWVAQIKDKSQNYATYYAESVKGRFTISRADSKNSIYLQMNSLKTEDTAVYYCRYVHYSASYGVDIWGQGTTVTVSS
VL: DIVMTQSPLSLPVTPGEPASISCRSSQSLVHSNRNTYLHWYQQKPGQAPRLLIYKVSNRFSGVPDRFSGSGSGTDFTLKISRVEAEDVGVYYCGQGTQVPYTFGQGTKLEIKR
notes: one-arm
B11 showed a Kd of 26.1 nM.

B12: TR01H040-E22Hh/none-Hi-Kn010G3/L0011-k0 (antibody, V domains shown)
VH: QVQLVESGGGLVQPGRSLRLSCAASGFTFSNAWMHWVRQAPGKGLEWVAQIKDKSQNYATYYAESVKGRFTISRADSKNSIYLQMNSLKTEDTAVYYCRYVHYSASYGVDAWGQGTTVTVSS
VL: DIVMTQSPLSLPVTPGEPASISCRSSQPLVHSNRNTYLHWYQQKPGQAPRLLIYKVSNRFSGVPDRFSGSGSGTDFTLKISRVEAEDVGVYYCGQGTQVPYTFGQGTKLEIKR
notes: one-arm
The molecule B12 showed a Kd of 34.8 nM.

B13: TR01H040-E22Hh/none-Hi-Kn010G3/L0212-k0 (antibody, V domains shown)
VH: QVQLVESGGGLVQPGRSLRLSCAASGFTFSNAWMHWVRQAPGKGLEWVAQIKDKSQNYATYYAESVKGRFTISRADSKNSIYLQMNSLKTEDTAVYYCRYVHYSASYGVDAWGQGTTVTVSS
VL: DIVMTQSPLSLPVTPGEPASISCRPSQSPVHSNRNTYLHWYQQKPGQAPRLLIYKVSNRFSGVPDRFSGSGSGTDFTLKISRVEAEDVGVYYCYQGTQVPYTFGQGTKLEIKR
notes: one-arm
In the case of B13, binding was put at a Kd of 2.17 nM.

B14: TR01H040-E22Hh/none-Hi-Kn010G3/L0204-k0 (antibody, V domains shown)
VH: QVQLVESGGGLVQPGRSLRLSCAASGFTFSNAWMHWVRQAPGKGLEWVAQIKDKSQNYATYYAESVKGRFTISRADSKNSIYLQMNSLKTEDTAVYYCRYVHYSASYGVDAWGQGTTVTVSS
VL: DIVMTQSPLSLPVTPGEPASISCRSSQSPVHSNRNTYLHWYQQKPGQAPRLLIYKVSNRFRGVPDRFSGSGSGTDFTLKISRVEAEDVGVYYCGQGTQVPYTFGQGTKLEIKR
notes: one-arm
Regarding B14, the affinity, expressed as Kd, was 22.1 nM.

B15: TR01H045-E22Hh/none-Hi-Kn010G3/L0000-k0 (antibody, V domains shown)
VH: QVQLVESGGGLVQPGRSLRLSCSASGFTFSNAWMHWVRQAPGKGLEWVAQIKDKSQNYATYYAESVKGRFTISRADSKNSIYLQMNSLKTEDTAVYYCRYVHYSASYGVDAWGQGTTVTVSS
VL: DIVMTQSPLSLPVTPGEPASISCRSSQSLVHSNRNTYLHWYQQKPGQAPRLLIYKVSNRFSGVPDRFSGSGSGTDFTLKISRVEAEDVGVYYCGQGTQVPYTFGQGTKLEIKR
notes: one-arm
B15 displayed a Kd of 52.2 nM.

B16: TR01H040-E22Hh/none-Hi-Kn010G3/L0211-k0 (antibody, V domains shown)
VH: QVQLVESGGGLVQPGRSLRLSCAASGFTFSNAWMHWVRQAPGKGLEWVAQIKDKSQNYATYYAESVKGRFTISRADSKNSIYLQMNSLKTEDTAVYYCRYVHYSASYGVDAWGQGTTVTVSS
VL: DIVMTQSPLSLPVTPGEPASISCRSSQPPVHSNRNTYLHWYQQKPGQAPRLLIYKVSNRFSGVPDRFSGSGSGTDFTLKISRVEAEDVGVYYCYQGTQVPYTFGQGTKLEIKR
notes: one-arm
As to B16, binding was put at a Kd of 3.22 nM.

B17: TR01H040-E22Hh/none-Hi-Kn010G3/L0209-k0 (antibody, V domains shown)
VH: QVQLVESGGGLVQPGRSLRLSCAASGFTFSNAWMHWVRQAPGKGLEWVAQIKDKSQNYATYYAESVKGRFTISRADSKNSIYLQMNSLKTEDTAVYYCRYVHYSASYGVDAWGQGTTVTVSS
VL: DIVMTQSPLSLPVTPGEPASISCRSSQSPVHSNRNTYIHWYQQKPGQAPRLLIYKVSNRFSGVPDRFSGSGSGTDFTLKISRVEAEDVGVYYCYQGTQVPYTFGQGTKLEIKR
notes: one-arm
The molecule B17 gave a Kd of 4.25 nM.

B18: TR01H048-E22Hh/none-Hi-Kn010G3/L0000-k0 (antibody, V domains shown)
VH: QVQLVESGGGLVQPGRSLRLSCAASGFTFSNAWMHWVRQAPGKGLEWVAQIKDKSQNYATYYAESVKGRFTISRDDSKNSIYLQMNSLKTEDTAVYYCRYVHYSASYGVDIWGQGTTVTVSS
VL: DIVMTQSPLSLPVTPGEPASISCRSSQSLVHSNRNTYLHWYQQKPGQAPRLLIYKVSNRFSGVPDRFSGSGSGTDFTLKISRVEAEDVGVYYCGQGTQVPYTFGQGTKLEIKR
notes: one-arm
In turn, B18 registered a dissociation constant Kd of 45.2 nM.

B19: TR01H046-E22Hh/none-Hi-Kn010G3/L0000-k0 (antibody, V domains shown)
VH: QVQLVESGGGLVQPGRSLRLSCSASGFTFSNAWMHWVRQAPGKGLEWVAQIKDKSQNYATYYAESVKGRFTISRADSKNSIYLQMNSLKTEDTAVYYCRYVHYSASYGVDYWGQGTTVTVSS
VL: DIVMTQSPLSLPVTPGEPASISCRSSQSLVHSNRNTYLHWYQQKPGQAPRLLIYKVSNRFSGVPDRFSGSGSGTDFTLKISRVEAEDVGVYYCGQGTQVPYTFGQGTKLEIKR
notes: one-arm
B19: the Kd turned out to be 42.3 nM.

B20: TR01H040-E22Hh/none-Hi-Kn010G3/L0201-k0 (antibody, V domains shown)
VH: QVQLVESGGGLVQPGRSLRLSCAASGFTFSNAWMHWVRQAPGKGLEWVAQIKDKSQNYATYYAESVKGRFTISRADSKNSIYLQMNSLKTEDTAVYYCRYVHYSASYGVDAWGQGTTVTVSS
VL: DIVMTQSPLSLPVTPGEPASISCRSSQPPVHSNRNTYLHWYQQKPGQAPRLLIYKVSNRFSGVPDRFSGSGSGTDFTLKISRVEAEDVGVYYCGQGTQVPYTFGQGTKLEIKR
notes: one-arm
On to B20, for which binding was characterised by a dissociation constant (Kd) of 28.1 nM.

B21: TR01H040-E22Hh/none-Hi-Kn010G3/L0206-k0 (antibody, V domains shown)
VH: QVQLVESGGGLVQPGRSLRLSCAASGFTFSNAWMHWVRQAPGKGLEWVAQIKDKSQNYATYYAESVKGRFTISRADSKNSIYLQMNSLKTEDTAVYYCRYVHYSASYGVDAWGQGTTVTVSS
VL: DIVMTQSPLSLPVTPGEPASISCRSSQSPVHSNRNTYLHWYQQKPGQAPRLLIYKVSNRFSGVPDRFSGSGSGTDFTLKISRVEAEDVGVYYCYQGTQVPYTFGQGTKLEIKR
notes: one-arm
B21: binding was put at a Kd of 2.9 nM.
